Source: patent US20200087367A1 (ACCELERON PHARMA, published 2020)

What was measured:
[1] = target: T1, BMP5 (human, UniProt P22003 317-454, limits assumed); test: SPR (Biacore), ligand amine-coupled to chip, Fc fusion injected
T1 sequence (looked up): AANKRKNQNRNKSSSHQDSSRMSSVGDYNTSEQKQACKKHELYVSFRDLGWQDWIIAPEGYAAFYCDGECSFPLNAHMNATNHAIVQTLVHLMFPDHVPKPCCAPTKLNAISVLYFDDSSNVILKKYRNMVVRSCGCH

[2] = target: T2, BMP10 (human, UniProt O95393 317-424); test: as above
T2 construct: also called hBMP-10; hBMP10
T2 sequence: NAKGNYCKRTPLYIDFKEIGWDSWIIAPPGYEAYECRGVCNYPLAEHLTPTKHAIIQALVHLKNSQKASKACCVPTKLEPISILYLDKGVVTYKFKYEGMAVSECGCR

[3] = target: T3, BMP9 (human, UniProt Q9UK05 320-429); test: SPR (Biacore), ligand amine-coupled to chip, Fc fusion injected; the hFc form had only transient affinity for BMP9
T3 construct: also called hBMP-9; hBMP9
T3 sequence (looked up): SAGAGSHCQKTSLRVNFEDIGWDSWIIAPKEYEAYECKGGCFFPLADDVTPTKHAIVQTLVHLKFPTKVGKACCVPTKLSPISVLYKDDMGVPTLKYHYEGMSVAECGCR
Description: Ligands were immobilized on a Biacore™ CMS chip using standard amine-coupling procedure.

B1: ActRIIB(L79D 25-131)-mFc (Fc fusion)
chain: ETRECIYYNANWELERTNQSGLERCEGEQDKRLHCYASWRNSSGTIELVKKGCWDDDFNCYDRQECVATEENPQVYFCCCEGNFCNERFTHLPEAGGPEVTYEPPPT
notes: not shown: linker and mouse Fc domain
Q: Does B1 bind [1]?
A: no binding

Q: Does B1 bind [2]?
A: binds

Q: Does B1 bind [3]?
A: binds
